Measurements taken from article PMC4346919.

Legend:
Test in all cases: far-Western, overlay or dot blot; purified GST-fused peptides resolved by SDS-PAGE, transferred to PVDF membranes and probed with biotin-labeled ALG-2; chemiluminescence, quantified with ImageJ
[1] = biological target: GST-8 aa-fusion of SET1B
[2] = biological target: GST-8 aa-fusion of RBM22
[3] = biological target: GST-8 aa-fusion of CHERP
[4] = biological target: substitution of Pro with Ala at position 2, 4 or 5 (P2A, P4A or P5A) or substitution of Pro5 with Leu (P5L)

Chain of biotin-labeled ALG-2 (O75340 whole entry): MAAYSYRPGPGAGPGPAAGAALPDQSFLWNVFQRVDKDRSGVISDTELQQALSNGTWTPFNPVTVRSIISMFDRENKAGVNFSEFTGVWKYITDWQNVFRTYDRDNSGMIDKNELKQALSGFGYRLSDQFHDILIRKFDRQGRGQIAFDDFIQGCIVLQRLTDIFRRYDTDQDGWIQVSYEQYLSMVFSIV

Question: How did the FW signal relative to that for Sec31A (of the signal for Sec31A) [1] turn out when “biotin-labeled ALG-2 (from UniProt O75340 1-191) (natural protein)” was run?
Answer: < 0.0625

Question: What about the FW signal relative to that for Sec31A (of the signal for Sec31A) [2] of the same substance?
Answer: < 0.0625

Question: What about the FW signal relative to that for Sec31A (of the signal for Sec31A) [3] of the same substance?
Answer: < 0.0625

Question: What about the relative binding activity (percent of WT) [4] of the same substance?
Answer: 40 to 75 % of WT
